B1: TNXB (parent)
chain: FSEIRETSAKVNWMPPPSRADSFK
B2: TMEM192 (parent)
chain: LWILHLLLECYIQYHHSKIRNRGY

Variants of: B1
Assay: protein stability index of a GFP-peptide fusion (GPS, HEK-293T) (PSI 1-6); higher = more stable
Settings: c terminus: a fixed tail appended
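Also: lentivirally expressed fusions sorted by FACS into six bins by GFP to DsRed ratio, PSI derived from sequencing read proportions per bin multiplied by bin number.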

Variant | protein stability index
FSEIRCTSAKVNWMPPPSRADSFK | 2.65
FSEIRQTSAKVNWMPPPSRADSFK | 2.02
FSEIRLTSAKVNWMPPPSRADSFK | 2.28
FSEIRWTSAKVNWMPPPSRADSFK | 2
FSEIRPTSAKVNWMPPPSRADSFK | 3.21
FSEIRITSAKVNWMPPPSRADSFK | 1.82
FSEIRYTSAKVNWMPPPSRADSFK | 2.87
FSEIRVTSAKVNWMPPPSRADSFK | 2.84
FSEIRTTSAKVNWMPPPSRADSFK | 2.95
FSEIRATSAKVNWMPPPSRADSFK | 3.31
FSEIRSTSAKVNWMPPPSRADSFK | 2.64
FSEIRKTSAKVNWMPPPSRADSFK | 3
FSEIRRTSAKVNWMPPPSRADSFK | 2.89
FSEIRGTSAKVNWMPPPSRADSFK | 3.03
FSEIRHTSAKVNWMPPPSRADSFK | 3.38
FSEIRFTSAKVNWMPPPSRADSFK | 2.22
FSEIRDTSAKVNWMPPPSRADSFK | 3.28
FSEIRNTSAKVNWMPPPSRADSFK | 2.69
FSEIRMTSAKVNWMPPPSRADSFK | 2.34
FSKIRETSAKVNWMPPPSRADSFK | 3.68
FSCIRETSAKVNWMPPPSRADSFK | 1.77
FSSIRETSAKVNWMPPPSRADSFK | 3.09
FSVIRETSAKVNWMPPPSRADSFK | 2.44
FSRIRETSAKVNWMPPPSRADSFK | 3.13
FSWIRETSAKVNWMPPPSRADSFK | 2.6
FSAIRETSAKVNWMPPPSRADSFK | 2.4

Variant | protein stability index
FSMIRETSAKVNWMPPPSRADSFK | 2.55
FSIIRETSAKVNWMPPPSRADSFK | 2.03
FSFIRETSAKVNWMPPPSRADSFK | 2.38
FSTIRETSAKVNWMPPPSRADSFK | 3.52
FSQIRETSAKVNWMPPPSRADSFK | 3.13
FSPIRETSAKVNWMPPPSRADSFK | 2.52
FSNIRETSAKVNWMPPPSRADSFK | 3.2
FSYIRETSAKVNWMPPPSRADSFK | 2.21
FSDIRETSAKVNWMPPPSRADSFK | 3.37
FSGIRETSAKVNWMPPPSRADSFK | 2.34
FSHIRETSAKVNWMPPPSRADSFK | 2.62
FSLIRETSAKVNWMPPPSRADSFK | 2.47
FSECRETSAKVNWMPPPSRADSFK | 3.49
FSEQRETSAKVNWMPPPSRADSFK | 3.89
FSELRETSAKVNWMPPPSRADSFK | 3.42
FSEKRETSAKVNWMPPPSRADSFK | 3.72
FSENRETSAKVNWMPPPSRADSFK | 3.51
FSEERETSAKVNWMPPPSRADSFK | 4.3
FSERRETSAKVNWMPPPSRADSFK | 3
FSEGRETSAKVNWMPPPSRADSFK | 4.34
FSETRETSAKVNWMPPPSRADSFK | 4.29
FSEVRETSAKVNWMPPPSRADSFK | 3.56
FSEPRETSAKVNWMPPPSRADSFK | 4.16
FSEARETSAKVNWMPPPSRADSFK | 3.76
FSEWRETSAKVNWMPPPSRADSFK | 1.9
FSEYRETSAKVNWMPPPSRADSFK | 2.94

Variant | protein stability index
FSESRETSAKVNWMPPPSRADSFK | 4.01
FSEMRETSAKVNWMPPPSRADSFK | 3.92
FSEDRETSAKVNWMPPPSRADSFK | 3.99
FSEFRETSAKVNWMPPPSRADSFK | 2.9
FSEHRETSAKVNWMPPPSRADSFK | 4.14
FSEIREESAKVNWMPPPSRADSFK | 3.88
FSEIRELSAKVNWMPPPSRADSFK | 2.69
FSEIREASAKVNWMPPPSRADSFK | 3.23
FSEIRENSAKVNWMPPPSRADSFK | 3.37
FSEIREQSAKVNWMPPPSRADSFK | 3.38
FSEIREKSAKVNWMPPPSRADSFK | 3.97
FSEIREFSAKVNWMPPPSRADSFK | 1.78
FSEIRERSAKVNWMPPPSRADSFK | 3.3
FSEIRECSAKVNWMPPPSRADSFK | 3.24
FSEIRESSAKVNWMPPPSRADSFK | 3.22
FSEIREGSAKVNWMPPPSRADSFK | 3.14
FSEIREPSAKVNWMPPPSRADSFK | 3.64
FSEIREHSAKVNWMPPPSRADSFK | 3.1
FSEIREDSAKVNWMPPPSRADSFK | 3.86
FSEIREMSAKVNWMPPPSRADSFK | 2.97
FSEIREISAKVNWMPPPSRADSFK | 2.9
WSEIRETSAKVNWMPPPSRADSFK | 3.6
DSEIRETSAKVNWMPPPSRADSFK | 5.04
CSEIRETSAKVNWMPPPSRADSFK | 3.69
ISEIRETSAKVNWMPPPSRADSFK | 3.46
PSEIRETSAKVNWMPPPSRADSFK | 4.76

Variant | protein stability index
YSEIRETSAKVNWMPPPSRADSFK | 3.98
HSEIRETSAKVNWMPPPSRADSFK | 3.94
KSEIRETSAKVNWMPPPSRADSFK | 4.4
TSEIRETSAKVNWMPPPSRADSFK | 4.07
LSEIRETSAKVNWMPPPSRADSFK | 4.02
RSEIRETSAKVNWMPPPSRADSFK | 4.99
GSEIRETSAKVNWMPPPSRADSFK | 4.22
QSEIRETSAKVNWMPPPSRADSFK | 4.48
MSEIRETSAKVNWMPPPSRADSFK | 4.15
NSEIRETSAKVNWMPPPSRADSFK | 4.63
VSEIRETSAKVNWMPPPSRADSFK | 4.19
ASEIRETSAKVNWMPPPSRADSFK | 4.29
ESEIRETSAKVNWMPPPSRADSFK | 4.45
SSEIRETSAKVNWMPPPSRADSFK | 4.48
FLEIRETSAKVNWMPPPSRADSFK | 2.97
FPEIRETSAKVNWMPPPSRADSFK | 3.65
FREIRETSAKVNWMPPPSRADSFK | 3.2
FTEIRETSAKVNWMPPPSRADSFK | 2.67
FDEIRETSAKVNWMPPPSRADSFK | 4.12
FWEIRETSAKVNWMPPPSRADSFK | 2.37
FVEIRETSAKVNWMPPPSRADSFK | 1.9
FIEIRETSAKVNWMPPPSRADSFK | 2.17
FKEIRETSAKVNWMPPPSRADSFK | 3.49
FEEIRETSAKVNWMPPPSRADSFK | 3.98
FAEIRETSAKVNWMPPPSRADSFK | 2.69
FFEIRETSAKVNWMPPPSRADSFK | 2.65

Variant | protein stability index
FQEIRETSAKVNWMPPPSRADSFK | 3.97
FGEIRETSAKVNWMPPPSRADSFK | 2.97
FHEIRETSAKVNWMPPPSRADSFK | 2.21
FNEIRETSAKVNWMPPPSRADSFK | 4.04
FMEIRETSAKVNWMPPPSRADSFK | 3.17
FYEIRETSAKVNWMPPPSRADSFK | 3
FSEIEETSAKVNWMPPPSRADSFK | 4.23
FSEIPETSAKVNWMPPPSRADSFK | 4.12
FSEIYETSAKVNWMPPPSRADSFK | 3.04
FSEICETSAKVNWMPPPSRADSFK | 2.83
FSEIIETSAKVNWMPPPSRADSFK | 3.4
FSEIMETSAKVNWMPPPSRADSFK | 3.48
FSEILETSAKVNWMPPPSRADSFK | 3.51
FSEIGETSAKVNWMPPPSRADSFK | 3.22
FSEISETSAKVNWMPPPSRADSFK | 4.02
FSEIKETSAKVNWMPPPSRADSFK | 3.74
FSEIHETSAKVNWMPPPSRADSFK | 3.79
FSEIAETSAKVNWMPPPSRADSFK | 3.96
FSEINETSAKVNWMPPPSRADSFK | 3.79
FSEITETSAKVNWMPPPSRADSFK | 3.87
FSEIWETSAKVNWMPPPSRADSFK | 2.02
FSEIQETSAKVNWMPPPSRADSFK | 4.15
FSEIDETSAKVNWMPPPSRADSFK | 3.97
FSEIFETSAKVNWMPPPSRADSFK | 2.86
FSEIVETSAKVNWMPPPSRADSFK | 3.52

Variants of: B2
Assay: as above
Settings: c terminus: a fixed tail appended

Variant | protein stability index
LWILHRLLECYIQYHHSKIRNRGY | 1.73
LWILHSLLECYIQYHHSKIRNRGY | 1.62
LWILHLLLECYIQYHHTKIRNRGY | 2.08
LWILHLLLECYIQYHHPKIRNRGY | 2.26
LWILHLLLEGYIQYHHSKIRNRGY | 1.18
LWILHLLLENYIQYHHSKIRNRGY | 1.79
LWILHLLLECYIQYHHSKIRNWGY | 3.32
LWILHLLLECYIQYHHSKIRNKGY | 1.46
LWILHLLLECYIQYHHSKIRNCGY | 4.22
LWILHLLLECYIQYHHSKIRNVGY | 1.17
LWILVLLLECYIQYHHSKIRNRGY | 2.22
LWILGLLLECYIQYHHSKIRNRGY | 1.48
LWILPLLLECYIQYHHSKIRNRGY | 3.17
LWILLLLLECYIQYHHSKIRNRGY | 2.28
LWILHLLLECYIQVHHSKIRNRGY | 2.53
LWILHLLLECYIQCHHSKIRNRGY | 2.16
LWILHLLLECYIQFHHSKIRNRGY | 2.96
LWILHLLLECYIQGHHSKIRNRGY | 1.41
LWILHLLLECYIQYHHSKIRNRGR | 2.31
LWILHLLLECYIQYHHSKIRNRGG | 3.91

Variant | protein stability index
LWILHLLLECYIQYHHSKIRNRGK | 1.31
LWILHLLLECYIQYHHSKIRNRGV | 2.69
LWILHLLLECYIQYHHSKIRNRGP | 2.52
LWILHLLLRCYIQYHHSKIRNRGY | 2.99
LWILHLLLLCYIQYHHSKIRNRGY | 1.7
LWILHLLLECYIQYHHSKIHNRGY | 2.63
LWILHLLLECYIQYHHSKIYNRGY | 2.69
LWILHLLLECYIQYHHSKIGNRGY | 2.05
LWILHLLLECYIQYHHSKIDNRGY | 2.8
LWILHLLLECYIQYHHSKILNRGY | 1.89
LWILHLPLECYIQYHHSKIRNRGY | 2.33
LWILHLQLECYIQYHHSKIRNRGY | 2.34
LWILHLMLECYIQYHHSKIRNRGY | 2.51
AWILHLLLECYIQYHHSKIRNRGY | 3.09
VWILHLLLECYIQYHHSKIRNRGY | 2.17
GWILHLLLECYIQYHHSKIRNRGY | 3.04
LWILHLLLECMIQYHHSKIRNRGY | 2.48
LWILHLLLECAIQYHHSKIRNRGY | 2.47
LWILHLLLECYISYHHSKIRNRGY | 1.9
LWILHLLLECYIEYHHSKIRNRGY | 1.8

Variant | protein stability index
LNILHLLLECYIQYHHSKIRNRGY | 2.28
LFILHLLLECYIQYHHSKIRNRGY | 3.58
LWILHLLLECYIQYHKSKIRNRGY | 1.64
LWILHLLLECYIQYHDSKIRNRGY | 1.47
LWILHLLLECYIQYHVSKIRNRGY | 2.54
LWILHLLLECYIQYHHSKTRNRGY | 1.94
LWILHLLLECYIQYHHSKWRNRGY | 1.88
LWILHLLLECYIQYHHSKIRNRFY | 1.38
LWILHLLLECYIQYHHSKIRNRMY | 1.87
LWILHLLLECYIQYHHSKIRNRNY | 1.79
LWILHLLLECYIQYHHSKIRRRGY | 3.57
LWILHLLWECYIQYHHSKIRNRGY | 2.98
LWILHLLRECYIQYHHSKIRNRGY | 2.96
LWILHLLHECYIQYHHSKIRNRGY | 3.75
LWILHLLSECYIQYHHSKIRNRGY | 4.08
LWNLHLLLECYIQYHHSKIRNRGY | 2.2
LWLLHLLLECYIQYHHSKIRNRGY | 3.4
LWIKHLLLECYIQYHHSKIRNRGY | 2.51
LWIFHLLLECYIQYHHSKIRNRGY | 1.69
